Data on two molecules can be found in paper PMC6166816 (Proceedings of the National Academy of Sciences of the …, 2018).

The target of test [1] is T1, MNoV (MNV1) strain CW3 VP1 protruding (P) domain (murine norovirus (MNV1 strain CW3), UniProt Q80J94 229-540).
T1 sequence: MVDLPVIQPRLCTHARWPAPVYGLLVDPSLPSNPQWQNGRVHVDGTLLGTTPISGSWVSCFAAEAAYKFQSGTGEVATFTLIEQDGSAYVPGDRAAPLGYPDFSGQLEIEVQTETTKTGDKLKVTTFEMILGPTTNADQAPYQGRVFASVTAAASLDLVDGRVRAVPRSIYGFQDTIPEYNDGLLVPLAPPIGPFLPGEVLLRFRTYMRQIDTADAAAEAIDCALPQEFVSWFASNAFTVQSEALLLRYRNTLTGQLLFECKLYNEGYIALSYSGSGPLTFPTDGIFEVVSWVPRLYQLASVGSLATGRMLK
Nature of the test: SPR.

Test [2] concerns the target T1, MNoV (MNV1) strain CW3 VP1 protruding …. Nature of the test: ITC. Background: ITC needs no label: the signal is the heat of the interaction.
The target is the same in test [3]. In words: BLI.

Where “and” joins values, the source holds several entries; their conditions need not be identical. Equal entries are not always repeated.

B1: murine CD300lf ectodomain (receptor)
chain: MAEDPVTGPEEVSGQEQGSLTVQCRYTSGWKDYKKYWCQGVPQRSCKTLVETDASEQLVKKNRVSIRDNQRDFIFTVTMEDLRMSDAGIYWCGITKGGLDPMFKVTVNIGPVPT
As for B1, in test [1], the Kd (in general, the constant that tells how readily two partners part at equilibrium) worked out at 219 µM. Also, in test [2], the Kd is 24.5 µM and ~24.3 µM and 12 µM; the stoichiometry N (in general, a count of units in the complex or per binding partner) is around 1.

B2: Fc–CD300lf fusion protein (Fc fusion)
chain: EDPVTGPEEVSGQEQGSLTVQCRYTSGWKDYKKYWCQGVPQRSCKTLVETDASEQLVKKNRVSIRDNQRDFIFTVTMEDLRMSDAGIYWCGITKGGLDPMFKVTVNIGP
As for B2, in test [3], the affinity, expressed as Kd, was 0.54 µM.
